Source: patent publication US20260232827A1 (Zymeworks, published 2026)

Assays:
[1] = target: T1, Construct 6 (NaPi2b del 317-333) (human, UniProt O95436 1-690); experiment: flow cytometry, HEK293-6e cells transfected with Construct 6
T1 construct: Deletion construct on HEK293-6e cells; also called CL_#29919
T1 sequence: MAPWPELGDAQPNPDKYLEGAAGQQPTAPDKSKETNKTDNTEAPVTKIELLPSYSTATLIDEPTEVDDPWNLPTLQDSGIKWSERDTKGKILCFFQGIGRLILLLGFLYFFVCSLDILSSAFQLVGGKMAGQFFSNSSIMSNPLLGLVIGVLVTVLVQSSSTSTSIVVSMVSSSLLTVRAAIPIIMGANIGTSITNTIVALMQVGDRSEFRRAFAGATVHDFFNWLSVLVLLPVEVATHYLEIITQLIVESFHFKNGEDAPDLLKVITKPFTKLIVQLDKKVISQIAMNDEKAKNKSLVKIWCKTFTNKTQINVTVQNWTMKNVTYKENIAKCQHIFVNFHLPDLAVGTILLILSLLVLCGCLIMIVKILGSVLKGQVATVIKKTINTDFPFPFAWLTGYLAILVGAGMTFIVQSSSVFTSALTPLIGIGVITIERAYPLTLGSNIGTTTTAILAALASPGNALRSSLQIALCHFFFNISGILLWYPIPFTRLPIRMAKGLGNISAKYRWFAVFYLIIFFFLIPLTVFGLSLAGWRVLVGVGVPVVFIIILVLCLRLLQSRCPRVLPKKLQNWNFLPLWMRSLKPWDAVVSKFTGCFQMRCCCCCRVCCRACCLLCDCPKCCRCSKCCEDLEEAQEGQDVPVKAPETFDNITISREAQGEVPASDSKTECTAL
Procedure: Following transfection, cells were seeded at 50,000 cells/well in conical-bottom 96-well plates and treated with a serial dilution of test antibody for 24 hours at 4° C. to prevent internalization. Cells were treated with final concentrations of all humanized antibodies of 200, 20, or 2 nM. Cells were treated with final concentrations of the reference anti-NaPi2a rabbit antibody of 50, 5, or 0.5 nM. […] Following incubation and washing, fluorescence was detected by flow cytometry on a BD LSRFortessa™ Cell Analyzer (BD Biosciences, Franklin Lake, NJ) with 1,000 minimum events collected per well. […] Background-subtracted AF647 Mean Fluorescence Intensity (MFI) values were calculated by subtracting the average MFI of three technical replicates of unstained (no primary antibody) cells.

mouse NaPi2b = target: T2, mouse NaPi2b (mouse, UniProt Q9DBP0 1-697); experiment: flow cytometry, HEK293-6e cells transfected with mouse NaPi2b; apparent Kd above the highest concentration tested
T2 construct: also called Ms NaPi2b; CL #13476
T2 sequence: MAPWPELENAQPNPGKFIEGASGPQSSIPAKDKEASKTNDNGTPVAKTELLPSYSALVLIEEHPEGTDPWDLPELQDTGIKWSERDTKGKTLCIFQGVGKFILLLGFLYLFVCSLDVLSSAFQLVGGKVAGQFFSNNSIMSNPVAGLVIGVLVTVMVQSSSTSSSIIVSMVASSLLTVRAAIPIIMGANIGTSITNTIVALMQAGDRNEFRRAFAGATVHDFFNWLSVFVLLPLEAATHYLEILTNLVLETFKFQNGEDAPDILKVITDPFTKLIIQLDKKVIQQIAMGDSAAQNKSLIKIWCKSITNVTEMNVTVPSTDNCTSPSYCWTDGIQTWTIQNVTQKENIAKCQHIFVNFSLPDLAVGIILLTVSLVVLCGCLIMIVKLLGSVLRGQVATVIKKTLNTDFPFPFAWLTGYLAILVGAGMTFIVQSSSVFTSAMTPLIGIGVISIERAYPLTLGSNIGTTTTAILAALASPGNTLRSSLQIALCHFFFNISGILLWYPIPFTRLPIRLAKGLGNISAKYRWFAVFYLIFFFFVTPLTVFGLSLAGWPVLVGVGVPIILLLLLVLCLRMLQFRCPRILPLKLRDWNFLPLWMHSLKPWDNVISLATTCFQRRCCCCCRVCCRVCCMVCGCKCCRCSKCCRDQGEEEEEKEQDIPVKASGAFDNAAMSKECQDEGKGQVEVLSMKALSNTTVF

[2] = target: T3, human sodium-dependent phosphate transporter 2B (NaPi2b) (human, UniProt O95436 1-690); experiment: flow cytometry on IGROV-1 cells (endogenous NaPi2b), 24 h at 4 C, anti-human IgG Fc AF647, APC-A GeoMean
T3 construct: UniProt ID is given as 095436 [sic]; also called hNaPi2b; Hu NaPi2b
T3 sequence: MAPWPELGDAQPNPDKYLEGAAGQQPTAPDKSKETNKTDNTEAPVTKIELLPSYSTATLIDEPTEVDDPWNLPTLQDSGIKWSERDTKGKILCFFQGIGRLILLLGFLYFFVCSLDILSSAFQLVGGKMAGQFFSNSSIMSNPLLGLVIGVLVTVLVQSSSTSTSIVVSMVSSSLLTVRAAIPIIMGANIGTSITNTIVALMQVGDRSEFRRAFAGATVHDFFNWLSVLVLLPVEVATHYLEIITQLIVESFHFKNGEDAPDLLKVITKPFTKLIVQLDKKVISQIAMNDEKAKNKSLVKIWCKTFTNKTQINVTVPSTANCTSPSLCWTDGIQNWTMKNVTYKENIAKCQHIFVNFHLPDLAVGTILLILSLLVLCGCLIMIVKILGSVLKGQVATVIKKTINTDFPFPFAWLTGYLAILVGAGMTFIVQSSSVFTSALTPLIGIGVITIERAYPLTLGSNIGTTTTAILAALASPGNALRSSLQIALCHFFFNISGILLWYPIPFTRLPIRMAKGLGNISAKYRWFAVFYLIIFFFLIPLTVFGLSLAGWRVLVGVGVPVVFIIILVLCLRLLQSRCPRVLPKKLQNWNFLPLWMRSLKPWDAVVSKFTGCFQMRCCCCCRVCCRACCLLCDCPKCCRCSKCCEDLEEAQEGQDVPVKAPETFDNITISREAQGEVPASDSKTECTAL

[3] = target: T3, human sodium-dependent phosphate …; experiment: flow cytometry on HCC-78 cells (endogenous NaPi2b), 24 h at 4 C, anti-human IgG Fc AF647, APC-A GeoMean
Procedure: Cells were maintained under standard culture conditions (37° C./5% CO₂) until assay set-up. […] Cells were removed from culture vessels using Cell Dissociation Buffer (Invitrogen, Waltham, MA), seeded at 50,000 cells/well in conical-bottom 96-well plates, and treated with test antibody or antibody-drug conjugate for 24 hours at 4° C. to prevent internalization. […] Following incubation and washing, fluorescence was detected by flow cytometry on a BD LSRFortessa™ Cell Analyzer (BD Biosciences, Franklin Lake, NJ) with 1,000 minimum events collected per well.

B1: v18992 (MX35), reference anti-NaPi2b antibody (antibody, human IgG1, kappa)
heavy 1: GQVQLVQSGAEVVKPGASVKMSCKASGYTFTGYNIHWVKQAPGQGLEWIGAIYPGNGDTSYKQKFRGRATLTADTSTSTVYMELSSLRSEDSAVYYCARGETARATFAYWGQGTLVTVSSASTKGPSVFPLAPSSKSTSGGTAALGCLVKDYFPEPVTVSWNSGALTSGVHTFPAVLQSSGLYSLSSVVTVPSSSLGTQTYICNVNHKPSNTKVDKKVEPKSCDKTHTCPPCPAPELLGGPSVFLFPPKPKDTLMISRTPEVTCVVVDVSHEDPEVKFNWYVDGVEVHNAKTKPREEQYNSTYRVVSVLTVLHQDWLNGKEYKCKVSNKALPAPIEKTISKAKGQPREPQVYVYPPSRDELTKNQVSLTCLVKGFYPSDIAVEWESNGQPENNYKTTPPVLDSDGSFALVSKLTVDKSRWQQGNVFSCSVMHEALHNHYTQKSLSLSPG
heavy 2: not shown
light: GDIQMTQSPSSLSASVGDRVTITCSASQDIGNFLNWYQQKPGKTVKVLIYYTSSLYSGVPSRFSGSGSGTDYTLTISSLQPEDFATYYCQQYSKLPLTFGQGTKLELKRTVAAPSVFIFPPSDEQLKSGTASVVCLLNNFYPREAKVQWKVDNALQSGNSQESVTEQDSKDSTYSLSSTLTLSKADYEKHKVYACEVTHQGLSSPVTKSFNRGEC
B1 was tested, and the binding result [1] was “no binding (tested: 200 nM)” and the Kd (mouse NaPi2b) was > 200 nM.

B2: v38591 (humanized anti-NaPi2b antibody, wild-type Fc) (antibody, human IgG1, kappa)
heavy: not shown
light: DVQMTQSPSSLSASVGDRVTITCRASQDVYSYLNWYQQKPGKAVKLLIYYTSRLQSGVPSRFSGSGSGTDYTLTISSLQPEDFATYYCQQYNIFPWTFGQGTKLEIKRTVAAPSVFIFPPSDEQLKSGTASVVCLLNNFYPREAKVQWKVDNALQSGNSQESVTEQDSKDSTYSLSSTLTLSKADYEKHKVYACEVTHQGLSSPVTKSFNRGEC
notes: also called v38591 Wild-type; H1L2
In the case of B2, the “EC50 (read off the curve)” value [2] is reported as ~2 nM and the “EC50 (read off the curve)” value [3] is reported as ~3 nM.
